Literature values, collected in paper PMC4632993.
pKd: −log10 of the molar value.

Molecular target: ubiquitin (Homo sapiens) (UniProt P0CG47)

Sequence of MDA-9/Syntenin (O00560 2-298): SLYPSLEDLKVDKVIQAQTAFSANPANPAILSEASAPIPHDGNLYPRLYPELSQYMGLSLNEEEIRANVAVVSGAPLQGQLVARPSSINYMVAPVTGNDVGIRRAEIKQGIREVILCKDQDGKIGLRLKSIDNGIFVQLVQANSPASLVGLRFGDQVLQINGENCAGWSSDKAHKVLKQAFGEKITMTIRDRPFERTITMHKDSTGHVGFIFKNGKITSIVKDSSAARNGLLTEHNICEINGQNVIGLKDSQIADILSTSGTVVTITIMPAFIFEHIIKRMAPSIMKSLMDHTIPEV

For MDA-9/Syntenin (from UniProt O00560), the pKd is given as 4.56.
